Data: patent publication US20230079439A1, “Compositions and Methods for Enhancing Beta Cell Maturation, Health and Function” (THE REGENTS OF THE UNIVERSITY OF CALIFORNIA, priority 2016, published 2023)

Target: transcellular partners
Assay: cell-based or functional assay

- half-maximal inhibition of insulin secretion by rat islets (20 mM glucose): 9 nM
Substance: Soluble neuroligin-2 extracellular domain (receptor)
